Experimental data reported in paper PMC7335187 (2020).

B1: Atg40^234–252 peptide [S. cerevisiae] / Atg8 (1-116) K26P [S. cerevisiae] (parent complex)
chain 1: TSTEFPNDYDFMEDILDET
chain 2: MKSTFKSEYPFEKRKAESERIADRFPNRIPVICEKAEKSDIPEIDKRKYLVPADLTVGQFVYVIRKRIMLPPEKAIFIFVNDTLPPTAALMSAIYQEHKDKDGFLYVTYSGENTFG

Variants of: B1
Test: ITC

Q: For chain 1 F5A, which Kd is on record?
A: The Kd was 4.31 µM.

Q: How did the Kd turn out when chain 1 Y9A was run?
A: The Kd was 32.7 µM.

Variants of: B1
Test: ITC
Remark: another data set of the same source

Q: Which Kd does the source give for chain 2 R67A here?
A: Its Kd is 24.8 µM.
